The target in this series is T1, LshC2c2 (Cas13a) wild type (Leptotrichia shahii, UniProt P0DOC6 SEQ:1-1389).
T1 sequence: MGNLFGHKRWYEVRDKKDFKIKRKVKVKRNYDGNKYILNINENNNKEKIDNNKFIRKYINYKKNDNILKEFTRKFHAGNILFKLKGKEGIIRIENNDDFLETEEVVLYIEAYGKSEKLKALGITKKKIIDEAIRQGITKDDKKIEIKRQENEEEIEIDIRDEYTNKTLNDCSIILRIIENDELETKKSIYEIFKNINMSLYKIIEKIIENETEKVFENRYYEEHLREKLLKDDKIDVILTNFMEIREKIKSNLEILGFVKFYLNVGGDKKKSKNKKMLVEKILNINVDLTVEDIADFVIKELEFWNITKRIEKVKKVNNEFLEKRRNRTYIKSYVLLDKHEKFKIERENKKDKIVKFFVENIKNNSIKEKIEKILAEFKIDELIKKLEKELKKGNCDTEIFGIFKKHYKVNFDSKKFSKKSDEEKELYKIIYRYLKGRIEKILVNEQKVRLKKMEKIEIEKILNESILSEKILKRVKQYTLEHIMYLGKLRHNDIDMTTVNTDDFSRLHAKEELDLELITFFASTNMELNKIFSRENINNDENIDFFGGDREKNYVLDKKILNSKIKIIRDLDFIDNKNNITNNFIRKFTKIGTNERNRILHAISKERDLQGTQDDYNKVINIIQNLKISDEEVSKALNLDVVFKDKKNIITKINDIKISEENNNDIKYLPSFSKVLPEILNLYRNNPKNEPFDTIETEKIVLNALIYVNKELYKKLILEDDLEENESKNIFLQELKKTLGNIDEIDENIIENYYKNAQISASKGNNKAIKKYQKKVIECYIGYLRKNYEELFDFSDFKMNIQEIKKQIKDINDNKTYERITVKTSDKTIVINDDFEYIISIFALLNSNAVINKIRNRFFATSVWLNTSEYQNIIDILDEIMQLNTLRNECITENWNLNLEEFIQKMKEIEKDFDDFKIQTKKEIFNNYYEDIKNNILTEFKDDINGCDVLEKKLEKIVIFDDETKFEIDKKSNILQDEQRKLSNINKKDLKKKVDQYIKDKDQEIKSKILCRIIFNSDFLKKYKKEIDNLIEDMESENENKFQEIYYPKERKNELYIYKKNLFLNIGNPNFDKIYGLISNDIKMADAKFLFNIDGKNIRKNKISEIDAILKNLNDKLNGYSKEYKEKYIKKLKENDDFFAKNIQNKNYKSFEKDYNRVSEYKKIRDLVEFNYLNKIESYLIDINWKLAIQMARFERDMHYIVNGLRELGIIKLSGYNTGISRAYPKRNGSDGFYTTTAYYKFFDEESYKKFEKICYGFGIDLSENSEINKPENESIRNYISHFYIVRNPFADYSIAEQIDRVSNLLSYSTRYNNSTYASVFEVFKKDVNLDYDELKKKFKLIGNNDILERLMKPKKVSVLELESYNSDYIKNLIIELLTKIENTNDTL
Description: EMSA; non-target reverse complement. The note with it: tags: expressed as 6-His-MBP-TEV fusion, TEV-cleaved; direct repeat stem-loop. The source says: FIG. 119D Electrophoretic mobility shift assay (EMSA) evaluating affinity of the wild type LshC2c2-crRNA complex against a targeted (left) and a non-targeted (right) ssRNA substrate. The non-targeted ssRNA substrate is the reverse-complement of the targeted ssRNA. EDTA is supplemented to reaction condition to reduce any cleavage activity. FIG. 119E Electrophoretic mobility shift assay with LshC2c2(R1278A)-crRNA complex against on-target ssRNA and non-targeting complementary ssRNA (same substrate sequences as in D). FIG. 119B discloses SEQ ID NOS: 2090-2091, respectively, in order of appearance.
To determine if target binding and cleavage activity of LshC2c2 are likewise separable, electrophoretic mobility shift assays (EMSA) were performed on both the wild-type (FIG. 119D) and R1278A mutant LshC2c2 (FIG. 119E) in complex with crRNA.
A general note: A gel shift assay detects complexes by their altered migration in electrophoresis.

B1: crRNA 14 ; ssRNA 10 (rc) (ssRNA ; ssRNA)
RNA 1: CCACCCCAAUAUCGAAGGGGACUAAAACUAGAUUGCUGUUCUACCAAGUAAUCCAU
RNA 2: CUUUAUGCUUCCGGCGUAGAUUGCUGUUCUACCAAGUAAUCCAUAUUCGAGCUCGAAUUCACUGGCCUAU
For the molecule B1, the binding result is given as “no binding”.

The values above are taken from patent publication US20240182928, “NOVEL CRISPR ENZYMES AND SYSTEMS” (The Broad Institute, Inc., published 2024).
